Conditions: Homo sapiens, pH 5, 25 °C, structure 1TEN
[1] = GdnHCl, Fluorescence, Sodium acetate 50mM, transition: 2

With Tenascin, P24821 I849A the “ddG of mutation (higher = less stable)” value [1] was 2.19 kcal/mol, the denaturant m value [1] was 2.87 kcal/mol/M and the “denaturant midpoint (higher = more stable)” value (from here on “denaturant midpoint”) [1] was 1.1 M. For the same substance, the “ddG of mutation (higher = less stable)” value (Urea, CD, Sodium acetate 50 mM) was 2.19 kcal/mol, the denaturant m value (Urea, CD, Sodium acetate 50 mM) was 1.1 kcal/mol/M and the “denaturant midpoint” value (Urea, CD, Sodium acetate 50 mM) was 3.52 M.
In the case of Tenascin, P24821 I860A, the “ddG of mutation (higher = less stable)” value (Urea, CD, Sodium acetate 50 mM) is reported as 2.06 kcal/mol, the denaturant m value (Urea, CD, Sodium acetate 50 mM) is reported as 1.3 kcal/mol/M and the “denaturant midpoint” value (Urea, CD, Sodium acetate 50 mM) is reported as 3.63 M.
For Tenascin, P24821 I860V, the “ddG of mutation (higher = less stable)” value [1] was 0.83 kcal/mol, the denaturant m value [1] was 1.86 kcal/mol/M and the “denaturant midpoint” value [1] was 1.5 M. The “ddG of mutation (higher = less stable)” value (Urea, CD, Sodium acetate 50 mM) was 0.83 kcal/mol, the denaturant m value (Urea, CD, Sodium acetate 50 mM) was 1.2 kcal/mol/M and the “denaturant midpoint” value (Urea, CD, Sodium acetate 50 mM) was 4.64 M.
In the case of Tenascin, P24821 L835A, the “ddG of mutation (higher = less stable)” value (Urea, CD, Sodium acetate 50 mM) is reported as 4.29 kcal/mol, the denaturant m value (Urea, CD, Sodium acetate 50 mM) is reported as 1.4 kcal/mol/M and the “denaturant midpoint” value (Urea, CD, Sodium acetate 50 mM) is reported as 1.8 M.
For Tenascin, P24821 L851A, the “ddG of mutation (higher = less stable)” value [1] was 2.99 kcal/mol, the denaturant m value [1] was 1.93 kcal/mol/M and the “denaturant midpoint” value [1] was 1.3 M. The “ddG of mutation (higher = less stable)” value (Urea, CD, Sodium acetate 50 mM) was 2.99 kcal/mol, the denaturant m value (Urea, CD, Sodium acetate 50 mM) was 1.3 kcal/mol/M and the “denaturant midpoint” value (Urea, CD, Sodium acetate 50 mM) was 2.87 M.
With Tenascin, P24821 L863A the “ddG of mutation (higher = less stable)” value [1] was 4.22 kcal/mol, the denaturant m value [1] was 4.55 kcal/mol/M and the “denaturant midpoint” value [1] was 1.2 M. The “ddG of mutation (higher = less stable)” value (Urea, CD, Sodium acetate 50 mM) was 4.22 kcal/mol, the denaturant m value (Urea, CD, Sodium acetate 50 mM) was 1.5 kcal/mol/M and the “denaturant midpoint” value (Urea, CD, Sodium acetate 50 mM) was 1.86 M.
For Tenascin, P24821 L873A, the “ddG of mutation (higher = less stable)” value (Urea, CD, Sodium acetate 50 mM) was 3.06 kcal/mol, the denaturant m value (Urea, CD, Sodium acetate 50 mM) was 1.4 kcal/mol/M and the “denaturant midpoint” value (Urea, CD, Sodium acetate 50 mM) was 2.81 M.
In the case of Tenascin, P24821 P806A, the “ddG of mutation (higher = less stable)” value [1] is reported as 2.74 kcal/mol, the denaturant m value [1] is reported as 2.98 kcal/mol/M and the “denaturant midpoint” value [1] is reported as 1.3 M. The “ddG of mutation (higher = less stable)” value (Urea, CD, Sodium acetate 50 mM) was 2.74 kcal/mol, the denaturant m value (Urea, CD, Sodium acetate 50 mM) was 1.1 kcal/mol/M and the “denaturant midpoint” value (Urea, CD, Sodium acetate 50 mM) was 3.07 M.
With Tenascin, P24821 P826A the “ddG of mutation (higher = less stable)” value (Urea, CD, Sodium acetate 50 mM) was 1.73 kcal/mol, the denaturant m value (Urea, CD, Sodium acetate 50 mM) was 1 kcal/mol/M and the “denaturant midpoint” value (Urea, CD, Sodium acetate 50 mM) was 3.9 M.
For Tenascin, P24821 P865A, the “ddG of mutation (higher = less stable)” value [1] was 0.93 kcal/mol, the denaturant m value [1] was 4.32 kcal/mol/M and the “denaturant midpoint” value [1] was 1.2 M. The “ddG of mutation (higher = less stable)” value (Urea, CD, Sodium acetate 50 mM) was 0.93 kcal/mol, the denaturant m value (Urea, CD, Sodium acetate 50 mM) was 1.2 kcal/mol/M and the “denaturant midpoint” value (Urea, CD, Sodium acetate 50 mM) was 4.55 M.
For Tenascin, P24821 P884A, the “ddG of mutation (higher = less stable)” value (Urea, CD, Sodium acetate 50 mM) was 0.11 kcal/mol, the denaturant m value (Urea, CD, Sodium acetate 50 mM) was 1.1 kcal/mol/M and the “denaturant midpoint” value (Urea, CD, Sodium acetate 50 mM) was 5.23 M.
In the case of Tenascin, P24821 S875A, the “ddG of mutation (higher = less stable)” value (Urea, CD, Sodium acetate 50 mM) is reported as -0.04 kcal/mol, the denaturant m value (Urea, CD, Sodium acetate 50 mM) is reported as 1.1 kcal/mol/M and the “denaturant midpoint” value (Urea, CD, Sodium acetate 50 mM) is reported as 5.36 M.
In the case of Tenascin, P24821 S882A, the “ddG of mutation (higher = less stable)” value [1] is reported as 2.82 kcal/mol, the denaturant m value [1] is reported as 5.23 kcal/mol/M and the “denaturant midpoint” value [1] is reported as 1.1 M.
In the case of Tenascin, P24821 T867S, the “ddG of mutation (higher = less stable)” value (Urea, CD, Sodium acetate 50 mM) is reported as 1.22 kcal/mol, the denaturant m value (Urea, CD, Sodium acetate 50 mM) is reported as 1.2 kcal/mol/M and the “denaturant midpoint” value (Urea, CD, Sodium acetate 50 mM) is reported as 4.32 M.
In the case of Tenascin, P24821 V811A, the “ddG of mutation (higher = less stable)” value [1] is reported as 1.36 kcal/mol, the denaturant m value [1] is reported as 3.03 kcal/mol/M and the “denaturant midpoint” value [1] is reported as 1.3 M. The “ddG of mutation (higher = less stable)” value (Urea, CD, Sodium acetate 50 mM) was 1.36 kcal/mol, the denaturant m value (Urea, CD, Sodium acetate 50 mM) was 1.2 kcal/mol/M and the “denaturant midpoint” value (Urea, CD, Sodium acetate 50 mM) was 4.21 M.
For Tenascin, P24821 V871A, the “ddG of mutation (higher = less stable)” value (Urea, CD, Sodium acetate 50 mM) was 2.81 kcal/mol, the denaturant m value (Urea, CD, Sodium acetate 50 mM) was 1.3 kcal/mol/M and the “denaturant midpoint” value (Urea, CD, Sodium acetate 50 mM) was 3.01 M.
